Assay results taken from patent US7494767B2, “Assay for TSG101 as inhibitors of HIV production” (priority 2001, dated 2009).

Key:
[1] = molecular target: T1, Tsg101 capture by Pr55^Gag (Homo sapiens, UniProt Q99816); test: Immune capture competition assay: Tsg101 capture by Pr55^Gag on antibody-coated Protein A beads; type: binding, mouse or human; details: 5-fold molar excess of peptide
T1 construct: anneals at the position corresponding to amino acid 10 in the protein, and 3′ primer no; 30, which anneals to the C-terminus; made in house; host or cells: Tsg101: rabbit reticulocyte lysate (TNT T7 system); Pr55Gag: E. coli BL21-DE3
T1 sequence (Q99816 11-390): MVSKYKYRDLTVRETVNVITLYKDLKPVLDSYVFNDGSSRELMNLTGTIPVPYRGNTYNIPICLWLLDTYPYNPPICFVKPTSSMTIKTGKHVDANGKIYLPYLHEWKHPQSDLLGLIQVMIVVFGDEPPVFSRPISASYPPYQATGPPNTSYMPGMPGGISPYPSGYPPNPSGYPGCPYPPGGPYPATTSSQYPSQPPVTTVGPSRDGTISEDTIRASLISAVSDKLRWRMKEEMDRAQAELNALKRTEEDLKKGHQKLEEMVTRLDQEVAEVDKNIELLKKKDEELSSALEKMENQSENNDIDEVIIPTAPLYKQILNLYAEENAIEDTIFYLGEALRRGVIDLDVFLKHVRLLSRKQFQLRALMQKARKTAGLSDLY
Protocol: Protein detection. Proteins were separated by electrophoresis through a 12.5% SDS polyacrylamide gel. For detection of radiolabeled Tsg101 after electrophoresis, gels were fixed, incubated for 30 min in EN^3HANCE (DuPont NEN) autoradiography enhancer for gel fluorography and dried. Radioactive bands were visualized using imaging film (BioMax, Kodak). Gels with non-radioactive samples were transferred to nitrocellulose and analyzed by Western blotting. The following antibodies, as specified in the text, were used: anti-capsid (CA)1 and -CA2 (rabbit polyclonal antibodies raised against native and denatured forms of the CA protein, respectively; Ebbets-Reed, D., 1996, in Molecular Microbiology, State University of New York at Stony Brook, Stony Brook, N.Y., pp. 209; Ehrlich, L. S., Agresta, B. E. & Carter, C. A., 1992, J. Virol. 66,4874-4883); anti-CA3 (mouse monoclonal antibody, NEN-DuPont); anti-p6 (rabbit polyclonal against the C-terminal 16 amino acids, S. Campbell, NCI-FCRDC); anti-nucleocapsid (NC, goat polyclonal, A. Rein, NCI-FCRDC); anti-T7 (Novagen); anti-Tsg1011 (monoclonal, Santa Cruz); antiTsg1012 (rabbit polyclonal, obtained from S. Cohen, Stanford U.). […]
Tsg101 binds to Pr55^Gag in vitro. […] The protein was detected consistently as a doublet, perhaps due to internal initiation at Met10. The protein was also sometimes detected as a doublet in cytoplasmic extracts. […]

[2] = test system: HIV-1 particles; test: Release of HIV-1 virus-like particles from transfected COS-1 cells (Western blot of particles, anti-CA); type: cell-based; details: 5 μM pa in the absence of pIND-h-Tsg101-FLAG

## LIAPP
[1]
  reduction in Tsg101 capture by Pr55^Gag: no change was detected

## CC(C)CC[C@@H](O)[C@](C)(O)[C@H]1CC[C@@]2(O)C3=CC(=O)[C@@H]4C[C@@H](O)[C@@H](O)C[C@]4(C)[C@H]3CC[C@]12C [pa, reference compound]
[2]
  inhibitory effect on virus release: no inhibitory effect
